Laboratory results reported in patent US20180346588A1 (MOGAM INSTITUTE FOR BIOMEDICAL RESEARCH, published 2018).
Read-outs that look alike come from different tables or passages of the source.

What was measured:
[1] = target: T1, recombinant human mesothelin (MSLN) (human, UniProt Q13421 296-580, limits assumed); assay: SPR, Biacore T-200; MSLN amine-coupled to CM5 chip, IgG in flow
T1 construct: also called human MSLN; recombinant human MSLN
Method: Quantitative binding force (affinity) of the purified anti-MSLN antibodies, i.e., MI323, MI329, MI403, MS502 clone antibodies with regard to recombinant human mesothelin (MSLN) was measured by using a Biacore T-200 (GE Healthcare, U.S.A.) biosensor. […] Then, […] serially diluted with HBS-EP buffer (10 mM HEPES, pH7.4, 150 mM NaCl, 3 mM EDTA, 0.005% surfactant P20) was allowed to flow at a concentration range of 0.078 nM to 5 nM and at a flow rate of 30 μL/min for association of 120 seconds and dissociation of 1800 seconds. The dissociation of the antibody bound to the MSLN was induced by flowing 10 mM Glycine-HCl pH 1.5 at a flow rate of 30 μL/min for 30 seconds (Table 7). The affinity was obtained as movement speed constants (Kₒₙ and Koff) and an equilibrium dissociation constant (KD) by using a Biacore T-200 evaluation software (Table 8).

[2] = target: T2, human mesothelin (MSLN) on the cell surface (human, UniProt Q13421 296-598); assay: FACS on MSLN stable cell line (#2), left panels; sheet note: 1st Ab 1 µg (1st assay), 2nd Ab anti-human Fc antibody FITC
T2 construct: also called MSLN of mesothelioma (H226, H2052) and pancreatic cancer (AsPC-1) cell lines; MSLN on MiaPaCa-MSLN #2 cells
Method: FACS test was performed on the MSLN present in the cell surface with regard to MiaPaCa-MSLN which is a cell line in which the MSLN was artificially expressed. Cells to be analyzed that were grown in a culture dish were separated by adding a Tryple Express solution and stored in a 50 mL tube, followed by centrifugation at 2000 rpm at room temperature for 3 minutes to decant the culture fluid, and the obtained product was washed once with PBS. The cells were suspended with FACS buffer, and transferred to a round bottom tube and centrifuged at 2000 rpm at room temperature for 3 minutes. The supernatant was discarded and the cells were well-loosened with the FACS buffer so as to have a cell density of 4×10⁵/mL. Then, 1 μg of candidate antibody was added thereto at 4° C. After 1 hour, the resultant material was washed with the FACS buffer twice, and goat-derived anti-human IgG antibody (FITC junction) was added in an amount of 1 μL for each sample to be combined at 4° C. for 30 minutes. The cells were collected by centrifugation at 2000 rpm for 3 minutes, and 500 μL of fixation buffer was added to resuspend the cells, and the cells were measured by FACS calibur (FIG. 6).
The FACS test was performed to evaluate whether the anti-MSLN antibody was selectively bound to the MSLN-overexpressing cell line (MiaPaCa-MSLN #2). The anti-MSLN candidate antibody was labeled by the method described in Example 4-2 above, and the cells were measured by FACS calibur (FIG. 7).

[3] = target: T2, human mesothelin (MSLN) on the cell …; assay: FACS on MiaPaCa-MSLN #2 cells, upper histogram and table
[4] = target: T1, recombinant human mesothelin (MSLN); assay: SPR, Biacore T-200; MSLN amine-coupled to CM5 chip, IgG in flow; remark: listed apart in the source
Method: The quantitative binding force (affinity) of each of the purified anti-MSLN antibodies, i.e., MS502 clone heavy chain variable region mutation antibodies 56, 2-30, 2-73, 2-78, and the combination antibodies of the C2G4 light chain variable region and the heavy chain variable region mutation antibodies including 56-C2G4, 2-30-C2G4, 2-73-C2G4, 2-78-C2G4 with regard to recombinant human mesothelin (MSLN) was measured by using a Biacore T-200 (GE Healthcare, U.S.A.) biosensor. […] Then, the clone 56 antibody, the clone 2-30 antibody, the clone 2-73 antibody, the clone 2-78 antibody, the clone 56-C2G4 antibody, the clone 2-30-C2G4 antibody, the clone 2-73-C2G4 antibody, and the clone 2-78-C2G4 antibody serially diluted with HBS-EP buffer (10 mM HEPES, pH7.4, 150 mM NaCl, 3 mM EDTA, 0.005% surfactant P20) were allowed to flow at a concentration range of 0.078 nM to 5 nM and at a flow rate of 30 μL/min for association of 120 seconds and dissociation of 1800 seconds. The dissociation of the antibody bound to the MSLN was induced by flowing 10 mM Glycine-HCl pH 1.5 at a flow rate of 30 μL/min for 30 seconds (Table 17). The affinity was obtained as movement speed constants (Kₒₙ and Koff) and an equilibrium dissociation constant (KD) by using a Biacore T-200 evaluation software (Table 18).

[5] = target: T1, recombinant human mesothelin (MSLN); assay: as above; remark: listed apart in the source
Method: Quantitative binding force (affinity) of the purified anti-MSLN antibodies, i.e., the MS502 clone light chain variable region mutation antibodies C2G1, C2G4, and C3C8 with regard to the recombinant human mesothelin (MSLN) was measured by using a Biacore T-200 (GE Healthcare, U.S.A.) biosensor. […] Then, the clone C2G1 antibody, the clone C2G4 antibody or the clone C3C8 antibody serially diluted with HBS-EP buffer (10 mM HEPES, pH7.4, 150 mM NaCl, 3 mM EDTA, 0.005% surfactant P20) was allowed to flow at a concentration range of 0.078 nM to 5 nM and at a flow rate of 30 μL/min for association of 120 seconds and dissociation of 1800 seconds. The dissociation of the antibody bound to the MSLN was induced by flowing 10 mM Glycine-HCl pH 1.5 at a flow rate of 30 μL/min for 30 seconds (Table 13). The affinity was obtained as movement speed constants (Kₒₙ and Koff) and an equilibrium dissociation constant (KD) by using a Biacore T-200 evaluation software (Table 14).

T1 sequence (Q13421 other isoform, or with tags, fused parts or gaps limits assumed): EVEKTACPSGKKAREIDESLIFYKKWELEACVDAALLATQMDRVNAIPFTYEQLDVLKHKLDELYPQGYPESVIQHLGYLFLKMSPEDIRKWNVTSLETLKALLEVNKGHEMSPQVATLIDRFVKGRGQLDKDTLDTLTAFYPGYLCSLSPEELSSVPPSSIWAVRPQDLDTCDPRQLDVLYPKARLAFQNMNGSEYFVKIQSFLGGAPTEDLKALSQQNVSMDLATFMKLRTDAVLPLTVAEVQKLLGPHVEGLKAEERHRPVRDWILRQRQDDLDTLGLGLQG
T2 sequence (Q13421 other isoform, or with tags, fused parts or gaps limits assumed): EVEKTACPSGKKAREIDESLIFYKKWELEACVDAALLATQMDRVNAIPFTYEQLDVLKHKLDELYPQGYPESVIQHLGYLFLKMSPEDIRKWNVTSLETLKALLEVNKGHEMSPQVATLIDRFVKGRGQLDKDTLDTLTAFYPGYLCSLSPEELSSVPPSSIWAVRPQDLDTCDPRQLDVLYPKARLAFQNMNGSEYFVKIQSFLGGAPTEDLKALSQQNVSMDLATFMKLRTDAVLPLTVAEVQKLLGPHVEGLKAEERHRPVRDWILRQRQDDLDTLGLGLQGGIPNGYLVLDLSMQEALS

Row | Binder | Kd [1] | Mean, FL1-H [2] | Mean, FL2-H [3] | Kd [4] | Kd [5]
1 | clone MS502 anti-MSLN antibody (antibody, V domains shown, SPR and FACS done with IgG: human IgG1 heavy chain constant region) VH: EVQLLESGGGLVQPGGSLRLSCAASGFTFSNYAMSWVRQAPGKGLEWVSGIPPDSGSKYYADSVRGRFTVSRDNSKNTLYLQMNSLRAEDTAVYYCAKNMLSFDYWGQGTLVTVSS VL: QSVLTQPPSASGTPGQRVTISCTGSSSNIGSNAVSWYQQLPGTAPKLLIYYNSKRPSGVPDRFSGSKSGTSASLAISGLRSEDEADYYCGSWDSSLNGYVFGGGTKVTVLG | 0.23 nM | 293 | 2280 |  | 
2 | clone 2-78-C2G4 antibody (antibody, V domains shown, IgG (human IgG1 heavy chain constant region; light chain constant region said to be human kappa)) VH: EVQLLESGGGLVQPGGSLRLSCAASGFTFSNYAMSWVRQAPGKGLEWVSGIPPDSGSKYYADSVRGRFTVSRDNSKNTLYLQMNSLRAEDTAVYYCAKNMFSFDYWGQGTLVTVSS VL: QSVLTQPPSASGTPGQRVTISCTGSSSNIGSNAVSWYQQLPGTAPKLLIYYNSKRPSGVPDRFSGSKSGTSASLAISGLRSEDEADYYCGSWDPSLNGYVFGGGTKVTVLG |  |  | 2280 | 0.0372 nM | 
3 | clone C2G1 (MS502 light chain variable region mutation antibody) (antibody, V domains shown, SPR done with IgG (human IgG1 heavy constant region)) VH: EVQLLESGGGLVQPGGSLRLSCAASGFTFSNYAMSWVRQAPGKGLEWVSGIPPDSGSKYYADSVRGRFTVSRDNSKNTLYLQMNSLRAEDTAVYYCAKNMLSFDYWGQGTLVTVSS VL: QSVLTQPPSASGTPGQRVTISCTGSSSNIGPNAVSWYQQLPGTAPKLLIYYNSKRPSGVPDRFSGSKSGTSASLAISGLRSEDEADYYCGSWDSSLSGYVFGGGTKVTVLG |  |  |  |  | 0.0939 nM
4 | clone C2G4 (MS502 light chain variable region mutation antibody) (antibody, V domains shown, SPR done with IgG (human IgG1 heavy constant region)) VH: EVQLLESGGGLVQPGGSLRLSCAASGFTFSNYAMSWVRQAPGKGLEWVSGIPPDSGSKYYADSVRGRFTVSRDNSKNTLYLQMNSLRAEDTAVYYCAKNMLSFDYWGQGTLVTVSS VL: QSVLTQPPSASGTPGQRVTISCTGSSSNIGSNAVSWYQQLPGTAPKLLIYYNSKRPSGVPDRFSGSKSGTSASLAISGLRSEDEADYYCGSWDPSLNGYVFGGGTKVTVLG |  |  |  |  | 0.0432 nM

Results, then the binder that gave them:

Row | Kd [1] | Mean, FL1-H [2] | Mean, FL2-H [3] | Kd [4] | Kd [5] | Binder
5 | 0.45 nM | 250 |  |  |  | clone MI403 anti-MSLN antibody (antibody, V domains shown, also called M1403) VH: EVQVVESGGGLVKPGGSLKLSCAASGFAFSSYDMSWVRQTPEKRLEWVAYISSGGGSTYYPDTVKGRFTISRDNAKNTLYLQMNSLKSEDTAMYYCARQGTAVKNYWYFDVWGAGTSVTVSS VL: DIVMTQSPASLAVSLGQRATISCRASQSVSTSSSSYVHWYQQRPGQPPKLLIKYASNLESGVPARFSGSGSGTDFTLNIHPVEEEDTGTYYCQHSWEIPFTFGSGTKLEIKR
6 | 0.035 nM | 410 |  |  |  | clone MI329 anti-MSLN antibody (antibody, V domains shown, also called M1329) VH: EVMLVESGGDLVKPGGSLKLSCAASGFTFSSYAMSWVRRTPEKRLEWVATINSDGSYTFYPDSVKGRFTISRDNAKNTLYLQMNSLRSEDTAMYYCARWGENWYFDVWGAGTTVTVSS VL: DVVMTQTPLSLPVSLGDQASISCRSSQSLVHSNGNTYLHWYLQKPGQSPKLLIYKVSNRFSGVPDRFSGSGSGTDFTLKISRVEAEDLGIYFCSQSTHFPRTFGGATKLELKR
7 | 0.18 nM | 419 | 2880 |  |  | clone MI323 anti-MSLN antibody (antibody, V domains shown, also called M1323) VH: EVQLQQSGPELVKPGTSVKISCKASGYSFTSYFIQWVKQRPGQGLEWIGWIFPGSGNTKYNEMFKGKATLAADTSSSTAYMQLSSLTSEDSAVYFCARSGGYQYYFDYWGQGTSVTVSS VL: DIVMTQSHKFMSTSVGDRVSITCKASQDVSTAVAWYQQKPGQSPKLLIYSASYRYPGVPDRFTGSGSGTDFTFTISSVQAEDLALYYCQQHYSTPWTFGGGTKLEIKR
8 |  |  |  |  | 0.122 nM | clone C3C8 (MS502 light chain variable region mutation antibody) (antibody, V domains shown, SPR done with IgG (human IgG1 heavy constant region)) VH: EVQLLESGGGLVQPGGSLRLSCAASGFTFSNYAMSWVRQAPGKGLEWVSGIPPDSGSKYYADSVRGRFTVSRDNSKNTLYLQMNSLRAEDTAVYYCAKNMLSFDYWGQGTLVTVSS VL: QSVLTQPPSASGTPGQRVTISCTGSSSNIGPNAVSWYQQLPGTAPKLLIYYNSKRPSGVPDRFSGSKSGTSASLAISGLRSEDEADYYCGSWDSDLRGYVFGGGTKVTVLG
